Here are results for two substances from paper PMC10413271.

Assay [1] concerns the target NiV-soluble external domain glycoprotein G (NiV-Ge) expressed from Ad5-NiVGe (Nipah virus, Bangladesh strain (NiV-Bd)). Description: Western blot (ProteinSimple capillary system).
Assay [2] addresses NiV full-length glycoprotein G (NiV-G) expressed from Ad5-NiVG (Nipah virus, Bangladesh strain (NiV-Bd)). Description: Western blot (ProteinSimple capillary system).

Where “and” joins values, the source holds several entries; their conditions need not be identical. Identical values can stand only once.

The stoichiometry N is a count of units in the complex or per binding partner. Take “NiV-soluble external domain glycoprotein G (NiV-Ge) expressed from Ad5-NiVGe (domain or fragment)”: in assay [1], the stoichiometry N is 2 and 4.

Consider “NiV full-length glycoprotein G (NiV-G) expressed from Ad5-NiVG (natural protein)”, for which the stoichiometry N in assay [2] is 2.
